The numbers were not newly measured in paper PMC9360543, which cites them from elsewhere.

Data set [1] addresses GRP78 (Homo sapiens) (UniProt P11021).
The target of data set [2] is Integrin αvβ5 (Homo sapiens) (UniProt P06756). The data set is described as follows: solid-phase ELISA-based binding assay. (In general: An ELISA detects its analyte on a solid surface through an enzyme-linked reagent.)
Sequence of UniProt P06756 (P06756 31-992, chain 1 of 2): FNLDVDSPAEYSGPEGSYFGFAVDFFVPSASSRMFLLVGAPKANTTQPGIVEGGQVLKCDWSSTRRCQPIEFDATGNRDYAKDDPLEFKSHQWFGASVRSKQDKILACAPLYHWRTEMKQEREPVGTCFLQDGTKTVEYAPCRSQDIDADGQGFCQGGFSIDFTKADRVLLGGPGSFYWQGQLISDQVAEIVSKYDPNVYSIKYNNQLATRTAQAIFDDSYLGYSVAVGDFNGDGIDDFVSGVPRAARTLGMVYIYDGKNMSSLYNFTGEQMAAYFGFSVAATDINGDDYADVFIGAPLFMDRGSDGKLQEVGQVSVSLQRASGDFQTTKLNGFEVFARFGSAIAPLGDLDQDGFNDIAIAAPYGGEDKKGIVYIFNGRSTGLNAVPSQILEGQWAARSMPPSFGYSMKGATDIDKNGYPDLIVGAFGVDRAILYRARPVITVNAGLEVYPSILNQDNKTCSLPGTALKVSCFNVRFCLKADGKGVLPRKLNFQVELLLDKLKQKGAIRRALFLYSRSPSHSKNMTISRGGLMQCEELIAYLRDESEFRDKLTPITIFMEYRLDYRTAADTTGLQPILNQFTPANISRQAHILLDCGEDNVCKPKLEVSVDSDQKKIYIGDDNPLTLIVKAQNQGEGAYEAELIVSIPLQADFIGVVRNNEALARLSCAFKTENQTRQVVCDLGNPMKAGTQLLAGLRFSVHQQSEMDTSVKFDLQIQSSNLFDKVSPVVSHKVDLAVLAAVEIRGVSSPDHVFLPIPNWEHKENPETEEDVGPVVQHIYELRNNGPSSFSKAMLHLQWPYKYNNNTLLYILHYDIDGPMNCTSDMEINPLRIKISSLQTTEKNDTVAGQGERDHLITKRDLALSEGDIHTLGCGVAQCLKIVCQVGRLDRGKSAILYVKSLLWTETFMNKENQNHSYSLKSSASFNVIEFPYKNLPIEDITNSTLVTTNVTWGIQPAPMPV
Sequence of UniProt P06756 (P18084 24-719, chain 2 of 2, further chain): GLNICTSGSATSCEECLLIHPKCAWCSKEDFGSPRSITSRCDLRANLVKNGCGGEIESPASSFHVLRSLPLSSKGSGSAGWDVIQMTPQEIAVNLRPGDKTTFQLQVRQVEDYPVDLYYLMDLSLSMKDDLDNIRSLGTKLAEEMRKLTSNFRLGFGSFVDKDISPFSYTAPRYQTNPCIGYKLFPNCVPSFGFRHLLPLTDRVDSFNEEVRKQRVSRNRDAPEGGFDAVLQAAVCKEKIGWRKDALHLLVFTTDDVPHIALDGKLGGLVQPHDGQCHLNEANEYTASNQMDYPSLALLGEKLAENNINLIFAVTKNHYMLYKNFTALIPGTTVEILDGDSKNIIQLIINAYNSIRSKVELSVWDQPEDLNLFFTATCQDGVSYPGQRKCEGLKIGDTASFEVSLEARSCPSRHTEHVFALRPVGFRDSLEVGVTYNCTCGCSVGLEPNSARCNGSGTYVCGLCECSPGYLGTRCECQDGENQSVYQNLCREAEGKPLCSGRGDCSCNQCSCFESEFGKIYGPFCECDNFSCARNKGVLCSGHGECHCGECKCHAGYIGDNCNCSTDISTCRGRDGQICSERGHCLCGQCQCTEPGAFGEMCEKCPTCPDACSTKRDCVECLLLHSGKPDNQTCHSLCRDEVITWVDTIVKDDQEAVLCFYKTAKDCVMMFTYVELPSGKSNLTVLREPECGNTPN

Sequence of UniProt P11021 (P11021 19-654): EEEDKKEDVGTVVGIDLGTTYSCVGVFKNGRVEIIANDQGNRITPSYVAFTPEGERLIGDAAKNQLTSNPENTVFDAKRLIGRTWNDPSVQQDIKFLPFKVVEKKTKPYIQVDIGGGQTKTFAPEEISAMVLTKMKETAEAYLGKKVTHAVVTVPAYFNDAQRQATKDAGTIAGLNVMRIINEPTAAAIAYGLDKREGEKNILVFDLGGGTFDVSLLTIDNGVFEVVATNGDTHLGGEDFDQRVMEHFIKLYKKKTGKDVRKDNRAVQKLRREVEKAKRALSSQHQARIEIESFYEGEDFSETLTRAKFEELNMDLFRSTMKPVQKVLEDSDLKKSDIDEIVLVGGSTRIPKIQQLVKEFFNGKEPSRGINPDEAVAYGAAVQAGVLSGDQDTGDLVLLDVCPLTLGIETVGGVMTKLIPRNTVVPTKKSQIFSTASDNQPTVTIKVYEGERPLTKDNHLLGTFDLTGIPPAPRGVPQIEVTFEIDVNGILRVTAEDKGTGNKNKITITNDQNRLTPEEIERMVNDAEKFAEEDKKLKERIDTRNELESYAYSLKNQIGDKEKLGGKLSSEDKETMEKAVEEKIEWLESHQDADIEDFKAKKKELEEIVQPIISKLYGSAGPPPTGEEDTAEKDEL

For the substance Isthmin-1 (from UniProt B1AKI9), the dissociation constant (Kd) (in general, the equilibrium constant for the complex coming apart) was 0.00858 µM in data set [1] and 40 µM in data set [2].
